Columns and labels:
[1] = target: Myc-tagged human M1 AQP4 on U87MG cells (human) (UniProt P55087); assay: fluorescence ratio imaging on U87MG cells (FIG. 6C)
[2] = target: Myc-tagged human M23 AQP4 on U87MG cells (human) (UniProt P55087); assay: as above
[3] = target: Myc-tagged human M1 AQP4 on U87MG cells (human) (UniProt P55087); assay: fluorescence ratio imaging on U87MG cells expressing Myc-tagged AQP4, anti-mouse IgG Alexa 488 detection
[4] = target: Myc-tagged human M23 AQP4 on U87MG cells (human) (UniProt P55087); assay: as above
[5] = target: T1, human AQP4 M23 isoform on U87MG cells (human, UniProt P55087 23-323); assay: two-colour fluorescence ratio imaging on U87MG cells, rAb titration, single-site binding fit
T1 construct: Tetramers that assemble into orthogonal arrays of particles (OAPs); The chain begins at Met-23 of the long isoform; also called M23 AQP4; M23-AQP4
Excerpt: (§1) FIG. 4B summarizes concentration-dependence binding curves for three recombinant NMO-IgGs, together with curve fits for a single-site binding model.

[6] = target: T2, human AQP4 M1 isoform on U87MG cells (human, UniProt P55087 1-323); assay: as above
T2 construct: Water channel; forms individual tetramers, no OAPs; also called M1 AQP4; M1-AQP4
Excerpt: as §1

[7] = target: T1, human AQP4 M23 isoform on U87MG cells; assay: two-colour fluorescence ratio imaging on transiently transfected U87MG cells, rAb-53 titration
[8] = target: T1, human AQP4 M23 isoform on U87MG cells; assay: as above; remark: listed apart in the source
[9] = target: T3, purified recombinant human M1 AQP4 reconstituted in proteoliposomes (human, UniProt P55087 1-323); assay: surface plasmon resonance (Biacore T-100), AQP4 proteoliposomes on L1 chip, antibody injected
T3 construct: 3% (wt/wt) AQP4 in phosphatidylcholine:phosphatidylserine liposomes on a Biacore L1 chip; also called AQP4-reconstituted proteoliposomes; AQP4-proteoliposomes
Description: Surface plasmon resonance. […] The mixture was dialyzed (10,000 dalton cut-off) against PBS at 4° C. for 48 h. […] Proteoliposomes were immobilized on a L1 sensor chip (Biacore) with four injections at 10 min/injection at 2 μl/min to achieve 6000 response units of proteoliposomes immobilization. The surface was then washed with two 20 s injections of 50 mM NaOH at 100 μl/min, and checked for surface quality with a 300 s injection of 0.01 mg/ml BSA at 20 μl/min. Flow channel 1 (Fc 1) was immobilized with 0% AQP4 as reference, and Fc 2 contained the AQP4 proteoliposomes. Binding studies were conducted with PBS at a flow rate of 15 μl/min. rAbs in PBS were injected for 80 s followed by a post-injection period of 240 s. Regeneration was performed by injection of 50 mM NaOH at 100 μl/min for 20 s. Binding studies were done in duplicate. Data were analyzed using Biacore T100 Evaluation software.
Binding of each monoclonal recombinant antibody to AQP4 in reconstituted proteoliposomes was measured by surface plasmon resonance.

[10] = target: T1, human AQP4 M23 isoform on U87MG cells; assay: two-colour fluorescence ratio imaging on transiently transfected U87MG cells, rAb-53 titration; remark: listed apart in the source
[11] = target: M23:CCA mixtures (human M23 AQP4 co-expressed with M1-C13A/C17A) on U87MG cells (human) (UniProt P55087); assay: as above
[12] = target: T1, human AQP4 M23 isoform on U87MG cells; assay: fluorescence ratio imaging on U87MG cells, single-site binding model

T1 sequence (P55087 23-323 limits assumed): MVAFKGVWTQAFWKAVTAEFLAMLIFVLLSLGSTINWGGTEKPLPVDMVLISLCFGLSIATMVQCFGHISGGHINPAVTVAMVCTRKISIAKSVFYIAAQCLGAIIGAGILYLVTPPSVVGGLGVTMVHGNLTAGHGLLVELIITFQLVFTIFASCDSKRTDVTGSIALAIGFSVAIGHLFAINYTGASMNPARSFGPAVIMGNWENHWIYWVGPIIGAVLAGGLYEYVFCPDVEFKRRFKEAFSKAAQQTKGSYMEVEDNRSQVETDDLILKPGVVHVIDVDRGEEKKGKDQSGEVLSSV
T3 sequence (P55087 whole entry, form in doubt): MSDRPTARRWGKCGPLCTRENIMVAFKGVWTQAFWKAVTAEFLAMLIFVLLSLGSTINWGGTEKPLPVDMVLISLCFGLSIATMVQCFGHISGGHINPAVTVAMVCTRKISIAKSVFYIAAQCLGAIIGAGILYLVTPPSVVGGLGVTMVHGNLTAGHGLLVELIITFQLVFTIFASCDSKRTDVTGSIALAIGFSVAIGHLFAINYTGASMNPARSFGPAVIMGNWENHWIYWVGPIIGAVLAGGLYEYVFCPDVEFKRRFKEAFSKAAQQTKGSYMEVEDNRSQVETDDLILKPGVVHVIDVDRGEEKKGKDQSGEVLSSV
Myc-tagged human M1 AQP4 on U87MG cells (human), sequence (P55087 whole entry): as the sequence (P55087 whole entry, form in doubt) above
Myc-tagged human M23 AQP4 on U87MG cells (human), sequence (P55087 whole entry, canonical isoform): as the sequence (P55087 whole entry, form in doubt) above
T2 sequence (P55087 whole entry, canonical isoform): as the sequence (P55087 whole entry, form in doubt) above

## monoclonal mouse anti-Myc IgG (Covance) (antibody)
[1]
  Kd: 10 nM
[2]
  Kd: 10 nM
[3]
  EC50 (read off the curve): 2 µg/mL
[4]
  EC50 (read off the curve): 1 µg/mL

B1: rAb-58 (recombinant monoclonal NMO-IgG) (antibody, V domains shown)
VH: VQLVESGGGLVQPGGSLRLSCAASGFTFRGYAMNWVRQAPGKGLEWVASISGSGSITQYADSAKGRFTITRDNSKSTLYAHVSSLRADDTAVYYCAKGDYVFDYWGQGTLVTVSS
VL: DIQMTQSPSALSASVGDTVTITCRASQSIRSWLAWYQQKPGKAPKLLIYKASDLQSGVPSRFSGSGSGTDFTLTISGLQPDDFATYYCQHYNSYPYTFGQGTKVEIRR
notes: Human recombinant IgG made in HEK293 cells
[5]
  EC50 (read off the curve): ~10 µg/mL
  Kd: 68 nM
[6]
  Kd: 147 nM

B2: rAb-53 (recombinant monoclonal NMO-IgG, non-mutated) (antibody, V domains shown)
VH: QVQLQESGAGLVKPSETLSLTCTVSGGSISGHYWNWIRQPPGKGLEWIGYIHYSGSTNYNPSLKSRVTISVDTSKNQFSLKLSSVTAADTAVYYCARAEGRGWSAFYYYYMEVWGKGSTVSVSS
VL: EIVLTQSPGTLSLSPGERATLSCRASQTVRTNYLAWFQQKPGQAPRLLIFGASSRATGIPDRFSGSGSGTDFTLTISRLEPEDFAVYYCQQYGSSPWTFGQGTKVEIKR
notes: Human recombinant IgG made in HEK293 cells; also called NMO-IgG (rAb-53)
[7]
  EC50 (read off the curve): ~7 µg/mL
[8]
  EC50 (read off the curve): ~7 µg/mL
[9]
  Kd: 27 nM
  koff: 0.00038 s⁻¹
  kon: 14000 M⁻¹ s⁻¹
[10]
  EC50 (read off the curve): ~7 µg/mL
[5]
  EC50 (read off the curve): ~7 µg/mL
[6]
  Kd: 2800 nM
[11]
  EC50 (read off the curve): 6 µg/mL
[12]
  Kd: 44 nM
